Test results reported in PMC3625871.

Molecular target: T1, AtVOZ2m (Arabidopsis thaliana, UniProt Q9SLB9 1-450, C249A;H253A)
T1 sequence: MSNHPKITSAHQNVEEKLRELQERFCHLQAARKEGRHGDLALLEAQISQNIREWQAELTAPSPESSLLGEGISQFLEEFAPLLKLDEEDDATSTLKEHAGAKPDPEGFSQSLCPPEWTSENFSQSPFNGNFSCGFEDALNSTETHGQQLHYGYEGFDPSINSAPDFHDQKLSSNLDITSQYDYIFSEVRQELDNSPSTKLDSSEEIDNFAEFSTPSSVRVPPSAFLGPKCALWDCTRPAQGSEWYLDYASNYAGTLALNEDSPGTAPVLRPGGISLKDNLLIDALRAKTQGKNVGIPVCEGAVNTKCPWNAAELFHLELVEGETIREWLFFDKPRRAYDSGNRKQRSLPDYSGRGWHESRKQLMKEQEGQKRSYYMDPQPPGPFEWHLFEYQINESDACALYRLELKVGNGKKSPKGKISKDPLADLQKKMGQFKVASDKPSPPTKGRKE
Experiment: EMSA

B1: pMOS3 (dsDNA)
DNA 1: GACGTCCGGCGCAGCGTTTATCAGACGCTGGGATTAAAACA
DNA 2: TGTTTTAATCCCAGCGTCTGATAAACGCTGCGCCGGACGTC
Does B1 bind?
Result: no binding
